Values quoted from earlier work in PMC3265123.
Like-named read-outs stand apart in the source and are kept apart here.

Tests used:
gC1qR (Homo sapiens) [1] = target: gC1qR (Homo sapiens) (UniProt Q07021)
gC1qR (Homo sapiens) [2] = target: gC1qR (Homo sapiens) (UniProt Q07021); remark: listed apart in the source

Chain of UniProt Q07021 (Q07021 74-282): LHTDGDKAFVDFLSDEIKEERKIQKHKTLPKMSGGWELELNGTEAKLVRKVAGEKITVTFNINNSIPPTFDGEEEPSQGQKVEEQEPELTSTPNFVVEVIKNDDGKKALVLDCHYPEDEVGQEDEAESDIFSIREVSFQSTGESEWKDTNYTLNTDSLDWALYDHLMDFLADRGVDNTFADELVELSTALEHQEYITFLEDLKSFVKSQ

In the case of “high molecular weight kininogen (from UniProt P01042)”, the Kd (gC1qR (Homo sapiens) [1]) is given as 9 nM and the Kd (gC1qR (Homo sapiens) [2]) is given as 0.8 nM.
